Laboratory results: article PMC5471280, “An alternative conformation of ERβ bound to estradiol reveals H12 in a stable antagonist position” (Scientific Reports, 2017)

Target: the molecule itself
Experiment: crystal structure; ERβ LBD-E2 complex at 5 mg/mL; sitting drop, 19 °C; 0.1 M Na-citrate pH 5.5, 10% PEG-4000, 10% isopropanol; no coactivator peptide; 2.5 Å; dimer in the asymmetric unit

B1: human estrogen receptor beta ligand-binding domain (residues 256-501) bound to 17β-estradiol (domain or fragment, UniProt Q92731 256-501, looked up)
chain: RELLLDALSPEQLVLTLLEAEPPHVLISRPSAPFTEASMMMSLTKLADKELVHMISWAKKIPGFVELSLFDQVRLLESCWMEVLMMGLMWRSIDHPGKLIFAPDLVLDRDEGKCVEGILEIFDMLLATTSRFRELKLQHKEYLCVKAMILLNSSMYPLVTATQDADSSRKLAHLLNAVTDALVWVIAKSGISSQQQSMRLANLLMLLSHVRHASNKGMEHLLNMKCKNVVPVYDLLLEMLNAHVLR
notes: The tag was removed with the SUMO protease Ulp1; also called ERβ LBD; hERβ LBD; source: E. coli BL21 (DE3)RIL, purified (NiNTA, Ulp1 cleavage, Superdex-75 SEC)
stoichiometry N: 2
